According to patent CN115772221A (BOAOXIN BIOTECHNOLOGY NANJING CO LTD, dated 2023):

Biological target: T1, 重组人CD47-his蛋白 (ACRO biosystems, cat#CD7-H5227, MW 15.6 kDa) (human, UniProt Q08722 19-139, biotin-labelled in the ELISAs (examples 3.1, 4.1, 4.2); unlabelled in Biacore)
T1 construct: Bought protein; also called 人CD47蛋白; 人CD47-生物素; not shown: His tag
Test: SPR (Biacore T200), antibody captured by goat anti-mouse IgG, CD47-his in solution

T1 sequence (Q08722 19-139 limits assumed): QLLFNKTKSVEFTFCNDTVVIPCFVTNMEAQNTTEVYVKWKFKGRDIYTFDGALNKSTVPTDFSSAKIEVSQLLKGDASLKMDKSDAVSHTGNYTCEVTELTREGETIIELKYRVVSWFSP

B1: 小鼠抗CD47单克隆抗体1D2 (antibody, V domains shown)
VH: EVQLQQSGPELVKPGASVRISCKTSGYKFTDYNIHWVKQSHGKSLEYIGYIYPYNISSAYNQKFKSKATVTVDNSSSTSYMELRSLTSEDSAVYYCARGGWRAMDYWGQGTSVTVSS
VL: AVLMTQSPLSLPVSLGDQASLSCRSSQNIVHTNGYTYLAWYLQRPGQSPKLLIYKVSNRFSGVPDRFSGSGSGTDFTLRISRVEAEDLGVYYCFQGSHVPWTFGGGTKLEIK
notes: Tested as a mouse monoclonal antibody purified from a hybridoma; 1D2 is the only named antibody of the invention; also called 本发明的单克隆抗体1D2; 本发明的抗体1D2
binding result: binds
